Earlier results as cited in patent US10105305B2, “Compositions and methods for promoting skin regeneration and hair growth” (THE JOHNS HOPKINS UNIVERSITY, priority 2014, dated 2018).

Details: in solution; cited from earlier work

In the case of “LL-37: 37 amino acid cathelicidin peptide, SEQ ID NO:1, residues 134-170 of hCAP18”, the “resistance to proteolytic degradation” value is given as “significantly resistant to proteolytic degradation in solution”.
